Data reported in US20230270832A1 (TSCAN THERAPEUTICS, published 2023).

B1: MAGEA1 TCR 32-41 (TCR, V domains shown)
V domain 1: QLLEQSPQFLSIQEGENLTVYCNSSSVFSSLQWYRQEPGEGPVLLVTVVTGGEVKKLKRLTFQFGDARKDSSLHITAAQPGDTGLYLCAGDESISYGKLTFGQGTILTVHP
V domain 2: DAGVIQSPRHEVTEMGQEVTLRCKPISGHDYLFWYRQTMMRGLELLIYFNNNVPIDDSGMPEDRFSAKMPNASFSTLKIQPSEPRDSAVYFCASSFLGWNEKLFFGSGTQLSVLE
B2: MAGEA1 TCR 32-39 (TCR, V domains shown)
V domain 1: DQQVKQNSPSLSVQEGRISILNCDYTNSMFDYFLWYKKYPAEGPTFLISISSIKDKNEDGRFTVFLNKSAKHLSLHIVPSQPGDSAVYFCAASAQNNDMRFGAGTRLTVKP
V domain 2: NAGVMQNPRHLVRRRGQEARLRCSPMKGHSHVYWYRQLPEEGLKFMVYLQKENIIDESGMPKERFSAEFPKEGPSILRIQQVVRGDSAAYFCASSPSYEQYFGPGTRLTVTE

Experiments:
[1] = target: MAGEA1 peptide VRFFFPSL (SEQ ID NO: 1) presented by HLA-C*07:02 (human); experiment: cell-based or functional assay
… (10) = … (10) (Homo sapiens, UniProt C*07:02); experiment: cell-based or functional assay

Row | Binder | EC50 [table, row MAGEA1, column Peptide EC50] [1] [pM] | EC50 (read off the curve) [left panel '4hr Killing (IFP)'] (… (10)) [ng/mL]
1 | B1 | ~250 | 
2 | B2 |  | ~8
